# Test results: patent US8728787B2, “Fungal laccases and uses thereof” (Academia Sinica, priority 2010, dated 2014)
# B1: Lcc3: laccase purified from Cerrena sp. WR1, GenBank accession no. GQ899203; SEQ ID NO:3 mature, 9 precursor (protein)
# chain: AIGPVADLHITDANVSPDGFTRPAVLAGGTFPGPLITGKQGDNFQINVIDELTDATMLKSTSIHWHGIFQKGTNWADGPSFVNQCPITTGNSFLYDFSVPDQTGTYWYHSHLSTQYCDGLRGALVIYDDNDPHKDLYDVDDETTVITLADWYHTQARLITGVPVSDATLINGLGRYLNGPTDAPLAVITVDQGKRYRFRLVSISCDPNFVFSIDNHSMTVIEVDAVNSQPLVVDSIQIFAAQRYSFILNANQSVGNYWIRANPNLGNTGFTNGINSAILRYNGAPVAEPNTTQTASTNPLNEVNLHPLVPTPVPGTPQPGGVDVVQNLVLGFSGGKFTINGVAFSPPTVPVLLQILSGTTTAQDLLPTGSIIELPLGKTVELTLAAGVLGGPHPFHLHGHTFHVVRSAGQTTPNYVDPILRDTVNTGAAGDNVTIRFTTDNPGPWFLHCHIDWHLEAGFAVVFAEGLNQTNAANPTPDAWNNLCDLYNALPAGDQ
# modifications: Cerrena sp
# How the values were obtained:
# [1] = Effect of organic solvents on laccase activity; type: biochemical; details: ABTS
# Description: To test the effects of various organic solvents on laccase activity, the enzymatic assay described above was carried out in the presence of one of the organic solvents shown in Table 1 below at various concentrations (1%, 10% and 25%). A T. versicolor (Fluka) laccase was used as a reference enzyme in this study. The enzyme concentration used in this study was 0.2 mg/ml. […] Further, more than 80% laccase activity remained in the presence of 10% acetonitrile or dimethyl sulfoxide. […]
# [2] = ABTS oxidation assay (laccase activity, kinetics, effect of temperature and pH); type: biochemical
# Description: All chemicals used in this study were obtained from Merck (Darmstadt, Germany) or Sigma-Aldrich (St. Louis, Mo. USA). All spectrophotometric measurements were performed using the Beckman DU 640 spectrophotometer (Beckman Coulter, USA).
# (§1) The effect of temperature on laccase activity was studied using the standard enzymatic activity assay described above under various reaction temperatures (i.e., 20-80° C.). For thermal stability study, the enzyme was pre-incubated in a 50 mM citric acid buffer (pH 3.0) at 50-80° C. for 0-180 min and the residual enzymatic activity was then determined.
# The effect of pH on the laccase activity was investigated at a pH range of 2.5-6.0. Four buffer systems were used in this study: 50 mM glycine-HCl buffer (pH 2.5), 50 mM citric acid buffer (pH 3.0-5.5), 50 mM sodium phosphate buffer (pH 6.0-8.0), and 50 mM glycine-NaOH buffer (pH 9.0-10). To determine the protein stability of laccase at a wide range of pH conditions, the enzyme (0.1 mg/mL in each reaction) was pre-incubated at pH 3.0-10 at 25° C. for 0-5 days and then the residual enzyme activity was determined.
# Kinetic parameters Km and Vmax were determined as follows. […] The oxidation reactions of guaiacol and 2,6-DMP were monitored by determining OD436 values (ε=6,400 M^−1cm^−1) and OD468 values (ε=49,600 M^−1 cm^−1), respectively. The kinetic parameters were determined by nonlinear regression analysis (ENZFITTER software program, Elsevier-Biosoft, Cambridge, UK) using the Michaelis-Menten model.
# (§2) To determine the effect of temperature on the enzyme activity, a standard enzymatic activity assay was performed under various temperatures (i.e., 30-90° C.). For thermal stability study, laccase was pre-incubated in a 50 mM citric acid buffer (pH 3.0) at 30-80° C. for 10-40 min and the residual enzymatic activity was then determined by the standard assay. See Example 1 above. Values of t1/2 were determined accordingly.
# The effect of pH on laccase activity was investigated at pH 2.0-6.0, using a glycine-HCl buffer (pH 2.0-2.5) or a citric acid buffer (pH 2.5-6.0). To determine protein stability in different pH conditions, the enzyme was pre-incubated at pH 2.5-4.5 at 25° C. for 0-2 h and the residual enzyme activity was determined by the standard enzymatic assay.
# Kinetic parameters were determined following conventional methods. See also Example 1 above.
# [3] = Laccase stability on extended incubation with ethanol or methanol; type: physicochemical; details: room temperature, pH 6.0
# Description: To examine the effect of ethanol on Cerrena sp. WR1 laccase stability, the enzyme was incubated in a 50 mM sodium phosphate buffer (pH 6.0) containing 1%, 10%, or 25% ethanol at room temperature for up to 52 days and the residual enzyme activity was measured at different time points during incubation. A T. versicolor laccase (LccTv) was used as a reference enzyme. […] Differently, Lcc3 retained around 90% activity after being incubated with 25% ethanol for 10 days and retained approximately 50% enzymatic activity after a 40-day incubation period. This enzyme also retained about 50% enzymatic activity after a 45-day incubation period with 10% ethanol and a 40-day incubation without ethanol.
# The laccase stability after incubation with methanol or ethanol for an extended period was further investigated. […] The enzyme activity of the Lentinus sp. laccase maintained as 95% in 25% ethanol while that of the reference laccase reduced to 41%.
# [4] = Thermal stability: residual enzymatic activity after pre-incubation (t1/2); type: physicochemical; details: for t1/2: 50 mM citric acid buffer pH 3.0
# Description: as §1
# To test thermal stability, the enzyme was kept at various temperatures (50-80° C.) for 10-40 min and the remaining enzymatic activity was determined using the standard activity assay.
# as §2
molecule,measurement,setting,value
B1,Relative activity,"[1]; Acetonitrile 1%, pH 3.0, 30° C.",92.7 ± 2.5%
same,Relative activity,"[1]; Acetonitrile 25%, pH 3.0, 30° C.",77.5 ± 3.2%
same,Relative activity,"[1]; Dimethyl sulfoxide 1%, pH 3.0, 30° C.",93.5 ± 1.4%
same,Relative activity,"[1]; Dimethyl sulfoxide 25%, pH 3.0, 30° C.",55.8 ± 1.7%
same,Relative activity,"[1]; Ethanol 1%, pH 3.0, 30° C.",94.5 ± 1.8%
same,Relative activity,"[1]; Ethanol 10%, pH 3.0, 30° C.",93.9 ± 4.0%
same,Relative activity,"[1]; Ethanol 25%, pH 3.0, 30° C.",84.8 ± 3.3%
same,Relative activity,"[1]; Methanol 1%, 50 mM citric acid buffer pH 3.0, 30° C.",93.0 ± 1.5%
same,Relative activity,"[1]; Methanol 10%, pH 3.0, 30° C.",85.5 ± 0.9%
same,Relative activity,"[1]; N,N-dimethylformamide 1%, pH 3.0, 30° C.",100 ± 0.9%
same,Relative activity,"[1]; N,N-dimethylformamide 10%, pH 3.0, 30° C.",98.4 ± 0.5%
same,optimal temperature,[2]; ABTS as substrate,50 °C
same,pH of maximal activity,[2]; ABTS as substrate,3.0
same,Optimum temperature,"[2]; ABTS as substrate, at pH 3.0",50 (at pH 3.0) ° C.
same,Specific activity,"[2]; ABTS as substrate, optimum temperature and pH",1013.5 U/mg
same,specific activity of the purified laccase,"[2]; at 30° C. and pH 3.0, ABTS","2,159.6 U/mg"
same,activity retained,"[3]; 1% ethanol, 52-day incubation",about 61%
same,activity retained,"[3]; 10% ethanol, 45-day incubation",approximately 50%
same,activity retained,"[3]; 25% ethanol, 40-day incubation",approximately 50%
same,activity retained,"[3]; 25% ethanol, 10 days",around 90%
same,activity retained,"[3]; without ethanol, 40-day incubation",approximately 50%
same,t1/2 at room temperature,"[4]; 25° C., 50 mM sodium phosphate buffer (pH 6.0)",40 days
same,t1/2,[4]; at 50° C.,120 min
same,t1/2,[4]; at 60° C.,40 min
same,t1/2,[4]; at 70° C.,7.5 min
same,t1/2,"[4]; at 70° C., listed as Cerrena sp. WR1",8 min
